Patent US7842469B2, “Bioluminescence resonance energy transfer (BRET) systems and methods of use thereof” (Stanford University, priority 2005, dated 2010)

Key:
[1] = Luciferase activity of purified RLuc mutants (light output integrated over 10 s, luminometer); format: biochemical; conditions: relative to native enzyme; for Activity (relative to RLuc) bc: benzyl-coelenterazine; for Activity (relative to RLuc) bdc: bisdeoxycoelenterazine; for Activity (relative to RLuc) cp: coelenterazine-cp; for Activity (relative to RLuc) n: coelenterazine-n; for Activity (relative to RLuc) native: native coelenterazine
From the text: Luminometer Calibration: Light measurements were made using a Turner 20/20 and later a Turner 20/20n luminometer (Turner Designs, Sunnyvale, Calif.). The luminometers were calibrated to absolute units (photons/s) using the luminol light standard performed in dimethyl sulfoxide (DMSO). No corrections were applied for the spectral sensitivity of the luminometer, as the spectral peak of luminol chemiluminescence in DMSO (486 nm) is close to the spectral peak of Renilla Luciferase bioluminescence (482 nm).
Characterization of Renilla Luciferase Mutants: Luciferase activity was measured by adding 1 μl of sample (diluted as necessary in EB containing 1% HSA) to 100 μl room temperature 100 mM sodium phosphate buffer (pH 7), manually adding 1 μl of 0.5 μg/μl coelenterazine or analog, manually mixing, and reading for 10 s in a luminometer. The time between the addition of the luciferin and the start of measurement was approximately 4 s.

[2] = Serum stability in rat serum at 37° C.; format: in vitro ADME; conditions: mono-exponential fit
Protocol: (§1) Serum stability measurements were done by mixing 0.5 μl dilute Luciferase with either 20 μl mouse serum or 50 μl rat serum (Equitech-Bio, Kerrville, Tex.) placing the sample in a 37° C. incubator, and removing aliquots for activity testing. To calculate serum half-lives, mono-exponential decay curves were fit to the serum stability data using a Nelder/Mead Simplex non-linear least squares minimization algorithm provided by the Octave numerical programming language. Emission spectra at ambient temperature were measured using a Triax 320 (Horiba Jobin Yvon, Edison, N.J.), which incorporates an optical grating device with a liquid N2 cooled CCD detector.

[3] = Serum stability in mouse serum at 37° C.; format: in vitro ADME; conditions: mouse serum, 37° C., mono-exponential fit
Protocol: as §1

[4] = Bioluminescence emission spectra; format: physicochemical; conditions: emission spectrum with native coelenterazine
Protocol: as §1

| Activity (relative to RLuc) bc [1] | Activity (relative to RLuc) bdc [1] | Activity (relative to RLuc) cp [1] | Activity (relative to RLuc) n [1] | Activity (relative to RLuc) native [1] | Molecule | Serum τ1/2 (h) rat [2] [h] | Serum τ1/2 (h) mouse [3] [h] | Wavelength (nm) mean [4] [nm] | Wavelength (nm) peak [4] [nm] |
| --- | --- | --- | --- | --- | --- | --- | --- | --- | --- |
| 0.01 | 0.01 | 0.03 | 0.01 | 0.02 | C124A/F180A: RLuc mutant C124A/F180A (protein) MASKVYDPEQRKRMITGPQWWARCKQMNVLDSFINYYDSEKHAENAVIFLHGNAASSYLWRHVVPHIEPVARCIIPDLIGMGKSGKSGNGSYRLLDHYKYLTAWFELLNLPKKIIFVGHDWGAALAFHYSYEHQDKIKAIVHAESVVDVIESWDEWPDIEEDIALIKSEEGEKMVLENNAFVETMLPSKIMRKLEPEEFAAYLEPFKEKGEVRRPTLSWPREIPLVKGGKPDVVQIVRNYNAYLRASDDLPKMFIESDPGFFSNAIVEGAKKFPNTEFVKVKGLHFSQEDAPDEMGKYIKSFVERVLKNEQ | 1.6 | 1.6 | 504 | 488 |
| 0.10 | 0.15 | 0.12 | 0.10 | 0.12 | C124A/E195S/P196D: RLuc mutant C124A/E195S/P196D (protein) MASKVYDPEQRKRMITGPQWWARCKQMNVLDSFINYYDSEKHAENAVIFLHGNAASSYLWRHVVPHIEPVARCIIPDLIGMGKSGKSGNGSYRLLDHYKYLTAWFELLNLPKKIIFVGHDWGAALAFHYSYEHQDKIKAIVHAESVVDVIESWDEWPDIEEDIALIKSEEGEKMVLENNFFVETMLPSKIMRKLSDEEFAAYLEPFKEKGEVRRPTLSWPREIPLVKGGKPDVVQIVRNYNAYLRASDDLPKMFIESDPGFFSNAIVEGAKKFPNTEFVKVKGLHFSQEDAPDEMGKYIKSFVERVLKNEQ | 0.7 | 1.0 | 498 | 482 |
| 0.99 | 1.2 | 0.97 | 1.0 | 1.1 | C124A/M191L: RLuc mutant C124A/M191L (protein) MASKVYDPEQRKRMITGPQWWARCKQMNVLDSFINYYDSEKHAENAVIFLHGNAASSYLWRHVVPHIEPVARCIIPDLIGMGKSGKSGNGSYRLLDHYKYLTAWFELLNLPKKIIFVGHDWGAALAFHYSYEHQDKIKAIVHAESVVDVIESWDEWPDIEEDIALIKSEEGEKMVLENNFFVETMLPSKILRKLEPEEFAAYLEPFKEKGEVRRPTLSWPREIPLVKGGKPDVVQIVRNYNAYLRASDDLPKMFIESDPGFFSNAIVEGAKKFPNTEFVKVKGLHFSQEDAPDEMGKYIKSFVERVLKNEQ | 5.1 | 6.5 | 496 | 480 |
| 0.95 | 3.0 | 1.3 | 1.1 | 1.1 | C124A/S257G: RLuc mutant C124A/S257G (protein) MASKVYDPEQRKRMITGPQWWARCKQMNVLDSFINYYDSEKHAENAVIFLHGNAASSYLWRHVVPHIEPVARCIIPDLIGMGKSGKSGNGSYRLLDHYKYLTAWFELLNLPKKIIFVGHDWGAALAFHYSYEHQDKIKAIVHAESVVDVIESWDEWPDIEEDIALIKSEEGEKMVLENNFFVETMLPSKIMRKLEPEEFAAYLEPFKEKGEVRRPTLSWPREIPLVKGGKPDVVQIVRNYNAYLRASDDLPKMFIEGDPGFFSNAIVEGAKKFPNTEFVKVKGLHFSQEDAPDEMGKYIKSFVERVLKNEQ | 1.4 | 1.3 | 493 | 477 |
| 0.55 | 0.43 | 0.52 | 0.41 | 0.55 | C124A/L203R: RLuc mutant C124A/L203R (protein) MASKVYDPEQRKRMITGPQWWARCKQMNVLDSFINYYDSEKHAENAVIFLHGNAASSYLWRHVVPHIEPVARCIIPDLIGMGKSGKSGNGSYRLLDHYKYLTAWFELLNLPKKIIFVGHDWGAALAFHYSYEHQDKIKAIVHAESVVDVIESWDEWPDIEEDIALIKSEEGEKMVLENNFFVETMLPSKIMRKLEPEEFAAYREPFKEKGEVRRPTLSWPREIPLVKGGKPDVVQIVRNYNAYLRASDDLPKMFIESDPGFFSNAIVEGAKKFPNTEFVKVKGLHFSQEDAPDEMGKYIKSFVERVLKNEQ | 2.2 | 2.7 | 501 | 484 |
| 0.01 | 0.01 | 0.03 | 0.03 | 0.02 | C124A/G229E: RLuc mutant C124A/G229E (protein) MASKVYDPEQRKRMITGPQWWARCKQMNVLDSFINYYDSEKHAENAVIFLHGNAASSYLWRHVVPHIEPVARCIIPDLIGMGKSGKSGNGSYRLLDHYKYLTAWFELLNLPKKIIFVGHDWGAALAFHYSYEHQDKIKAIVHAESVVDVIESWDEWPDIEEDIALIKSEEGEKMVLENNFFVETMLPSKIMRKLEPEEFAAYLEPFKEKGEVRRPTLSWPREIPLVKGEKPDVVQIVRNYNAYLRASDDLPKMFIESDPGFFSNAIVEGAKKFPNTEFVKVKGLHFSQEDAPDEMGKYIKSFVERVLKNEQ | 1.8 | 1.9 | 490 | 473 |
| 0.03 | 0.03 | 0.01 | 0.06 | 0.03 | C124A/F262L: RLuc mutant C124A/F262L (protein) MASKVYDPEQRKRMITGPQWWARCKQMNVLDSFINYYDSEKHAENAVIFLHGNAASSYLWRHVVPHIEPVARCIIPDLIGMGKSGKSGNGSYRLLDHYKYLTAWFELLNLPKKIIFVGHDWGAALAFHYSYEHQDKIKAIVHAESVVDVIESWDEWPDIEEDIALIKSEEGEKMVLENNFFVETMLPSKIMRKLEPEEFAAYLEPFKEKGEVRRPTLSWPREIPLVKGGKPDVVQIVRNYNAYLRASDDLPKMFIESDPGFLSNAIVEGAKKFPNTEFVKVKGLHFSQEDAPDEMGKYIKSFVERVLKNEQ | 6.4 | 5.8 | 495 | 478 |
| 0.44 | 0.46 | 0.53 | 0.49 | 0.58 | C124A/F199M: RLuc mutant C124A/F199M (protein) MASKVYDPEQRKRMITGPQWWARCKQMNVLDSFINYYDSEKHAENAVIFLHGNAASSYLWRHVVPHIEPVARCIIPDLIGMGKSGKSGNGSYRLLDHYKYLTAWFELLNLPKKIIFVGHDWGAALAFHYSYEHQDKIKAIVHAESVVDVIESWDEWPDIEEDIALIKSEEGEKMVLENNFFVETMLPSKIMRKLEPEEMAAYLEPFKEKGEVRRPTLSWPREIPLVKGGKPDVVQIVRNYNAYLRASDDLPKMFIESDPGFFSNAIVEGAKKFPNTEFVKVKGLHFSQEDAPDEMGKYIKSFVERVLKNEQ | 6.0 | 6.7 | 495 | 480 |
| 1.1 | 1.2 | 1.1 | 1.0 | 1.2 | C124A/Q235A: RLuc mutant C124A/Q235A (protein) MASKVYDPEQRKRMITGPQWWARCKQMNVLDSFINYYDSEKHAENAVIFLHGNAASSYLWRHVVPHIEPVARCIIPDLIGMGKSGKSGNGSYRLLDHYKYLTAWFELLNLPKKIIFVGHDWGAALAFHYSYEHQDKIKAIVHAESVVDVIESWDEWPDIEEDIALIKSEEGEKMVLENNFFVETMLPSKIMRKLEPEEFAAYLEPFKEKGEVRRPTLSWPREIPLVKGGKPDVVAIVRNYNAYLRASDDLPKMFIESDPGFFSNAIVEGAKKFPNTEFVKVKGLHFSQEDAPDEMGKYIKSFVERVLKNEQ | 3.6 | 3.3 | 489 | 473 |
